Results on 19 sequences are retold here after the Immune Epitope Database (IEDB).

Targets include HLA-A*03:01; HLA-A*31:01; HLA-A*33:01; HLA-A*68:01; HLA-A*11:01; HLA-A*02:03.
Common to all, as to assay: IEDB peptide-MHC binding, purified MHC/competitive/radioactivity; filed as Kd, often an IC50 or EC50 that approximates it; ≥ and ≤ were set here for values at or beyond the usual limits of such assays
[1] abbreviates: source organism: Vaccinia virus WR.
Where [2] appears, read: source organism: Vaccinia virus Copenhagen.
Where [3] appears, read: source organism: SARS coronavirus Tor2.

The Kd is the free concentration of one partner at which half of the binding sites on the other are occupied at equilibrium, for simple one-to-one binding. NMKQCTNDIY: the Kd was 211 nM with HLA-A*03:01 (setting [1]); at least 57400 nM with HLA-A*31:01 (setting [1]); at least 65700 nM with HLA-A*33:01 (setting [1]); 2780 nM with HLA-A*68:01 (setting [1]); 16400 nM in the test with HLA-A*11:01 (setting [1]).

Take VSAQNISFK: the Kd in the test with HLA-A*03:01 (setting [1]) is 14.6 nM; in the test with HLA-A*31:01 (setting [1]), 1570 nM; with HLA-A*33:01 (setting [1]), at least 33900 nM; with HLA-A*68:01 (setting [1]), 70.6 nM; with HLA-A*11:01 (setting [1]), 9.62 nM.

With DVRDKRRKY, the Kd with HLA-A*03:01 (setting [1]) is at least 28900 nM; with HLA-A*31:01 (setting [1]) it was at least 77900 nM; in the test with HLA-A*33:01 (setting [1]) it was at least 77700 nM; with HLA-A*68:01 (setting [1]), at least 53800 nM; with HLA-A*11:01 (setting [1]) it was at least 77900 nM.

GLACYRFVK: the Kd with HLA-A*03:01 (setting [2]) was found to be 22.2 nM; in the test with HLA-A*31:01 (setting [2]), 217 nM; with HLA-A*33:01 (setting [2]), 1830 nM; with HLA-A*68:01 (setting [2]) it was 703 nM; with HLA-A*11:01 (setting [2]), 24 nM.

Turning to QSVLCVKKFY, the Kd was 1370 nM with HLA-A*03:01 (setting [1]); 15600 nM with HLA-A*31:01 (setting [1]); at least 24500 nM with HLA-A*33:01 (setting [1]); 5670 nM in the test with HLA-A*68:01 (setting [1]); 13200 nM in the test with HLA-A*11:01 (setting [1]).

Consider LIHDNIMYTY, for which the dissociation constant Kd is 45.3 nM in the test with HLA-A*03:01 (setting [1]); 4160 nM with HLA-A*31:01 (setting [1]); at least 32300 nM with HLA-A*33:01 (setting [1]); 566 nM with HLA-A*68:01 (setting [1]); 238 nM in the test with HLA-A*11:01 (setting [1]).

For PFTQHLLNIR, the Kd with HLA-A*03:01 (setting [1]) is at least 22300 nM; with HLA-A*31:01 (setting [1]), 167 nM; with HLA-A*33:01 (setting [1]) it was 6510 nM; in the test with HLA-A*68:01 (setting [1]), 224 nM; with HLA-A*11:01 (setting [1]) it was 2890 nM.

Consider GLKSKTHAV, for which the Kd in the test with HLA-A*02:03 (source organism: Homo sapiens) turned out to be 1.58 nM.

Turning to KTNSTVDVR, the Kd in the test with HLA-A*03:01 (setting [1]) worked out at 1880 nM; in the test with HLA-A*31:01 (setting [1]) it was 11 nM; in the test with HLA-A*33:01 (setting [1]) it was 13300 nM; with HLA-A*68:01 (setting [1]) it was 19.9 nM; with HLA-A*11:01 (setting [1]) it was 88.1 nM.

Consider TVSALVYDNK, for which the Kd with HLA-A*03:01 (setting [3]) was 488 nM; with HLA-A*31:01 (setting [3]), 4890 nM; with HLA-A*33:01 (setting [3]) it was 9750 nM; in the test with HLA-A*68:01 (setting [3]) it was 5.88 nM; with HLA-A*11:01 (setting [3]), 20.6 nM.

For the sequence SLFPLCLSTT, in the test with HLA-A*02:03 (source organism: Dengue virus 1 Brazil/97-11/1997), the Kd amounted to 0.3 nM.

Turning to FIRIIRPDY, the Kd in the test with HLA-A*03:01 (setting [1]) is at least 78000 nM; in the test with HLA-A*31:01 (setting [1]), 7050 nM; in the test with HLA-A*33:01 (setting [1]), at least 24700 nM; with HLA-A*68:01 (setting [1]) it was 3090 nM; with HLA-A*11:01 (setting [1]) it was at least 56200 nM.

On to EILKINSVKY, for which the Kd with HLA-A*03:01 (setting [1]) is 6090 nM; with HLA-A*31:01 (setting [1]), 1040 nM; in the test with HLA-A*33:01 (setting [1]), 5170 nM; with HLA-A*68:01 (setting [1]), 3870 nM; in the test with HLA-A*11:01 (setting [1]), 6290 nM.

PIYSHTERDK: the Kd is 932 nM in the test with HLA-A*03:01 (setting [1]); 977 nM with HLA-A*31:01 (setting [1]); at least 54600 nM with HLA-A*33:01 (setting [1]); 14000 nM with HLA-A*68:01 (setting [1]); 6590 nM in the test with HLA-A*11:01 (setting [1]).

For the sequence RTRLYDYFTR, the Kd in the test with HLA-A*03:01 (setting [1]) was 6060 nM; with HLA-A*31:01 (setting [1]), 0.7 nM; with HLA-A*33:01 (setting [1]) it was 1630 nM; with HLA-A*68:01 (setting [1]), 1450 nM; with HLA-A*11:01 (setting [1]), 991 nM.

Take QQLEDIFMR: the Kd with HLA-A*03:01 (setting [1]) came out at 2710 nM; in the test with HLA-A*31:01 (setting [1]), 1190 nM; in the test with HLA-A*33:01 (setting [1]), 4070 nM; in the test with HLA-A*68:01 (setting [1]) it was 5480 nM; with HLA-A*11:01 (setting [1]) it was 13400 nM.

With KMAVEVGSIR, the Kd with HLA-A*03:01 (setting [1]) is 4540 nM; in the test with HLA-A*31:01 (setting [1]) it was 1670 nM; with HLA-A*33:01 (setting [1]), 13700 nM; with HLA-A*68:01 (setting [1]), 95.8 nM; with HLA-A*11:01 (setting [1]) it was at least 21100 nM.

For the sequence SILARRPTPK, the Kd with HLA-A*03:01 (setting [1]) is 1.08 nM; with HLA-A*31:01 (setting [1]), 372 nM; with HLA-A*33:01 (setting [1]), 12300 nM; with HLA-A*68:01 (setting [1]), 147 nM; with HLA-A*11:01 (setting [1]) it was 1.44 nM.

Regarding NLEMIDERKY, the Kd is at least 70100 nM with HLA-A*03:01 (setting [1]); at least 24200 nM with HLA-A*31:01 (setting [1]); at least 70000 nM in the test with HLA-A*33:01 (setting [1]); at least 21400 nM with HLA-A*68:01 (setting [1]); at least 69800 nM with HLA-A*11:01 (setting [1]).
